{
  "source": "paper doi:10.1101/2023.03.12.532276",
  "about": "(bioRxiv, 2023)",
  "proteins": {"B1": {"name": "ELF3 PrLD Q7 (prion-like domain of EARLY FLOWERING 3, residues 388-625, 7 glutamines, ecotype Columbia) (domain or fragment)", "chain": "LLPSEFLVKPPLPHVVVKQRGDSEKTDQHKMESSAENVVGRLSNQGHHQQSNYMPFANNPPASPAPNGYCFPPQPPPSGNHQQWLIPVMSPSEGLIYKPHPGMAHTGHYGGYYGHYMPTPMVMPQYHPGMGFPPPGNGYFPPYGMMPTIMNPYCSSQQQQQQQPNEQMNQFGHPGNLQNTQQQQQRSDNEPAPQQQQQPTKSYPRARKSRQGSTGSSPSGPQGISGSKSFRPFAAVDE"}},
  "target": "the molecule itself",
  "assay": "SAXS with online size exclusion",
  "data": [
    {"protein": "B1", "values": [
      {"measurement": "binding result", "result": "binds"}
    ]}
  ]
}
